One molecule from article PMC3540207 (Nature structural & molecular biology, 2012) can be followed below.

This assay deals with ATG3 (human, recombinant) (human, UniProt Q9NT62 1-314). The assay is described as follows: ITC.

Usually Kd stands for the constant that tells how readily two partners part at equilibrium.

ATG3 (human, recombinant), sequence (Q9NT62 whole entry): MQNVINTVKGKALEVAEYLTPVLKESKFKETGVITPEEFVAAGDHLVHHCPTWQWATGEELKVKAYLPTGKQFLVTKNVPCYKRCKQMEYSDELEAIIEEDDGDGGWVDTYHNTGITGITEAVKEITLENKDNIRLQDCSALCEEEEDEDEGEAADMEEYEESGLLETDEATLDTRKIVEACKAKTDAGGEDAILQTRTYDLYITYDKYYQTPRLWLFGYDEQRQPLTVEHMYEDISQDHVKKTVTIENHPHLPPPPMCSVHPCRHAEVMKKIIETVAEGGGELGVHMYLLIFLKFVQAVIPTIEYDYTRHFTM

B1: unconjugated ATG12 (human, recombinant) (natural protein, UniProt O94817 1-140, looked up)
chain: MAEEPQSVLQLPTSIAAGGEGLTDVSPETTTPEPPSSAAVSPGTEEPAGDTKKKIDILLKAVGDTPIMKTKKWAVERTRTIQGLIDFIKKFLKLVASEQLFIYVNQSFAPSPDQEVGTLYECFGSDGKLVLHYCKSQAWG
Take B1: the Kd was determined as 117 nM.
